Measured values taken from IntAct's records for PubMed 20840750.

B1: Cryptochrome-2 (Mus musculus), Q9R194 (parent)
chain: MAAAAVVAATVPAQSMGADGASSVHWFRKGLRLHDNPALLAAVRGARCVRCVYILDPWFAASSSVGINRWRFLLQSLEDLDTSLRKLNSRLFVVRGQPADVFPRLFKEWGVTRLTFEYDSEPFGKERDAAIMKMAKEAGVEVVTENSHTLYDLDRIIELNGQKPPLTYKRFQALISRMELPKKPAVAVSSQQMESCRAEIQENHDDTYGVPSLEELGFPTEGLGPAVWQGGETEALARLDKHLERKAWVANYERPRMNANSLLASPTGLSPYLRFGCLSCRLFYYRLWDLYKKVKRNSTPPLSLFGQLLWREFFYTAATNNPRFDRMEGNPICIQIPWDRNPEALAKWAEGKTGFPWIDAIMTQLRQEGWIHHLARHAVACFLTRGDLWVSWESGVRVFDELLLDADFSVNAGSWMWLSCSAFFQQFFHCYCPVGFGRRTDPSGDYIRRYLPKLKGFPSRYIYEPWNAPESVQKAAKCIIGVDYPRPIVNHAETSRLNIERMKQIYQQLSRYRGLCLLASVPSCVEDLSHPVAEPGSSQAGSISNTGPRALSSGPASPKRKLEAAEEPPGEELTKRARVTEMPTQEPASKDS

Variants of: B1
Conditions: with per2_mouse Per2, O54943
Sequence of per2_mouse Per2, O54943 (O54943 whole entry): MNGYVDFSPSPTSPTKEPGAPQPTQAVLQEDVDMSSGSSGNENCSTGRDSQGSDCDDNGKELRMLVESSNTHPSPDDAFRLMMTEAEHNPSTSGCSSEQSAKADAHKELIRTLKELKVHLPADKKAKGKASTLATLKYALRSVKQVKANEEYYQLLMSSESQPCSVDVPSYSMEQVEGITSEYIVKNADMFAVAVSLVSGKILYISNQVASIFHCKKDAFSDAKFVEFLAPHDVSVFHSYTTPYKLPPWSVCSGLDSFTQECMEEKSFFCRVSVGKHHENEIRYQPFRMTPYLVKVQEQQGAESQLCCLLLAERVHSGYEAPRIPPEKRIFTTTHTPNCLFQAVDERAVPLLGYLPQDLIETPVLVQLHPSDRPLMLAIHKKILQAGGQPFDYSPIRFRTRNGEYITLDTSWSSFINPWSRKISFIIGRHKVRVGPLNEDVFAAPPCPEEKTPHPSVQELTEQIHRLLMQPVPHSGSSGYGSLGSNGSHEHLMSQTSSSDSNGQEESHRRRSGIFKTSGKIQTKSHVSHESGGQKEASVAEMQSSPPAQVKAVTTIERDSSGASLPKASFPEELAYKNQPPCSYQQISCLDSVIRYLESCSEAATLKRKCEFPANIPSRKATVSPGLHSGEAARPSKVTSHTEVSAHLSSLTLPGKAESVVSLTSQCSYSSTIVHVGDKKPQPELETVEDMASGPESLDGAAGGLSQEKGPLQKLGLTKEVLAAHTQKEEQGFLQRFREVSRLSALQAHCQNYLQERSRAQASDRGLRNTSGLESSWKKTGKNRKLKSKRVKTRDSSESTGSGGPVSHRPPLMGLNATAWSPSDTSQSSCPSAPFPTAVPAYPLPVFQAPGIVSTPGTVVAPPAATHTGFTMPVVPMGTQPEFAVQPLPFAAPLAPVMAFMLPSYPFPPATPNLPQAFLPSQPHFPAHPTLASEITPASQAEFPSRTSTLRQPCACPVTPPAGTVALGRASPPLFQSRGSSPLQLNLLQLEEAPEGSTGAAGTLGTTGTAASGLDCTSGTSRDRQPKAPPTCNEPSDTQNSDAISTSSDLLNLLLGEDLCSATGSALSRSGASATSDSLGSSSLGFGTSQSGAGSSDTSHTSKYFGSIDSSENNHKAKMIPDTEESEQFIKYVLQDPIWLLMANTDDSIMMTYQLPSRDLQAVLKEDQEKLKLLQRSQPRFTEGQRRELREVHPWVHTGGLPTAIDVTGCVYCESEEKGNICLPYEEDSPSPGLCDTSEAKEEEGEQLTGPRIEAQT

Row | effect of a mutation on the interaction | Variant
1 | decreasing interaction | E493G;L497P;K503R;I505T;L509P
2 | decreasing interaction | I499T;R501Q;I505T;L509P
3 | decreasing interaction | R501Q;K503R
4 | decreasing interaction | S495G;L497P;I499T;R501Q;K503R;I505T;L509P
5 | decreasing interaction | L497P;I499T;R501Q;I505T;L509P
6 | decreasing interaction | S495G;L497P;I499T;K503R;I505T;L509P
7 | decreasing interaction | I499T;K503R;I505T;L509P
8 | decreasing interaction | I499T;R501Q
